# Test results taken from the Human Domainome abundance scans (Beltran et al. 2025).
# ± gives the uncertainty stated by the source.
# B1: SH3 and PX domain-containing protein 2B, residues 155 to 209; numbered along this chain, A1X283 (parent)
# chain: EQYVVVANYQKQESSEISLSVGQVVDIIEKNESGWWFVSTAEEQGWVPATCLEGQ
# Variants of: B1
# Test: abundance fitness (aPCA) (normalised: wild type 0, dead -1); higher = more abundant; growth selection in yeast, the domain comes from the species named
# Settings: Homo sapiens
row,Variant,abundance fitness
1,EQYVVVANYQKQESSEISLSVGQVVDIILKNESGWWFVSTAEEQGWVPATCLEGQ,-0.123 ± 0.088
2,EQYVVVANYQKQESSEISLSVGQVVDIISKNESGWWFVSTAEEQGWVPATCLEGQ,-0.114 ± 0.07
3,EQYVVVANYQKQESSEISLSVGQVVDIIQKNESGWWFVSTAEEQGWVPATCLEGQ,0.05 ± 0.11
4,EQYVVVANYQKQESSEISLSVGQVVDIIHKNESGWWFVSTAEEQGWVPATCLEGQ,0.056 ± 0.28
5,EQYVVVANYQAQESSEISLSVGQVVDIIEKNESGWWFVSTAEEQGWVPATCLEGQ,-0.106 ± 0.081
6,EQYVVVANYQKQESSEISLSVGWVVDIIEKNESGWWFVSTAEEQGWVPATCLEGQ,-0.292 ± 0.14
7,EQYVVVANYQKQESSEISLSVGGVVDIIEKNESGWWFVSTAEEQGWVPATCLEGQ,-0.263 ± 0.068
8,EQYVVVANYQKQESSEISLSVGQVVDIIEKEESGWWFVSTAEEQGWVPATCLEGQ,-0.122 ± 0.094
9,EQYVVVANYQKQESSEISLSVGQVVDIIEKMESGWWFVSTAEEQGWVPATCLEGQ,-0.009 ± 0.1
10,EQYVVVANYQKQESSEISLSVGQVVDIIEKHESGWWFVSTAEEQGWVPATCLEGQ,-0.095 ± 0.13
11,EQYVVVANYQKQESSEISLSVGQVVDIIEKNESGWWFVSTAEEQGWVPATCLEGI,-0.099 ± 0.11
12,EQYVVVANYQKQESSEISLSVGQVVDIHEKNESGWWFVSTAEEQGWVPATCLEGQ,-0.052 ± 0.23
13,EQYVVVANYQKQESSEISLSVGQVVDINEKNESGWWFVSTAEEQGWVPATCLEGQ,-0.229 ± 0.17
14,EQYVVVANYQKQESSEISLSVGQVVDIKEKNESGWWFVSTAEEQGWVPATCLEGQ,-0.008 ± 0.14
15,EQYVVVANYQKQESSEISLSVGQVVDIIEKNESGWWFVSTAEEQGWVPATCLEHQ,-0.345 ± 0.2
16,EQYVVPANYQKQESSEISLSVGQVVDIIEKNESGWWFVSTAEEQGWVPATCLEGQ,-0.529 ± 0.16
17,EQYVVEANYQKQESSEISLSVGQVVDIIEKNESGWWFVSTAEEQGWVPATCLEGQ,-0.366 ± 0.11
18,EQYVVLANYQKQESSEISLSVGQVVDIIEKNESGWWFVSTAEEQGWVPATCLEGQ,-0.199 ± 0.11
19,EQYVWVANYQKQESSEISLSVGQVVDIIEKNESGWWFVSTAEEQGWVPATCLEGQ,-0.938 ± 0.16
20,EQYVVVANYQKQLSSEISLSVGQVVDIIEKNESGWWFVSTAEEQGWVPATCLEGQ,-0.178 ± 0.071
21,EQYVVVANYQKQYSSEISLSVGQVVDIIEKNESGWWFVSTAEEQGWVPATCLEGQ,-0.248 ± 0.11
22,EQYVVVANYQKQESSEISLSVGQVVDIIEKNESGDWFVSTAEEQGWVPATCLEGQ,-0.182 ± 0.14
23,EQYVVVANYQKQESSEISLSVGQVVDIIEKNESGEWFVSTAEEQGWVPATCLEGQ,-0.173 ± 0.1
24,EQYVVVANYQKQESSEISLSVGQVVDIIEKNESGHWFVSTAEEQGWVPATCLEGQ,0.013 ± 0.12

row,Variant,abundance fitness
1,EQYVVVANYQKQESSEISLSVGQVVDIIEKNESEWWFVSTAEEQGWVPATCLEGQ,-0.147 ± 0.081
2,EQYVVVANYQKQESSEISLSVGQVVDIIEKNESIWWFVSTAEEQGWVPATCLEGQ,-0.579 ± 0.15
3,EQYVVVANYQKQESSEISLSVGQVVDIIEKNESGWWAVSTAEEQGWVPATCLEGQ,-0.174 ± 0.081
4,EQYVVVANYQKQESSEISLSVGQVVDIIEKNESGWWDVSTAEEQGWVPATCLEGQ,-0.347 ± 0.15
5,EQYVVVANYQKQESSEISLSVGQVVDIIEKNESGWWTVSTAEEQGWVPATCLEGQ,-0.472 ± 0.15
6,EQYVVVANYQKQESSEISLSVGQVVDIIEKNESGWWKVSTAEEQGWVPATCLEGQ,0.066 ± 0.14
7,EQYVVVANYQKQESSEISLSVGQVVDIIEKNESGWWSVSTAEEQGWVPATCLEGQ,-0.109 ± 0.072
8,EQYVVVANYQKQESSEISKSVGQVVDIIEKNESGWWFVSTAEEQGWVPATCLEGQ,-0.957 ± 0.14
9,EQYVVVANYQKQESSEISQSVGQVVDIIEKNESGWWFVSTAEEQGWVPATCLEGQ,-0.865 ± 0.16
10,EQYVVVANYQKQESSEISMSVGQVVDIIEKNESGWWFVSTAEEQGWVPATCLEGQ,-0.545 ± 0.15
11,EQYVVVANYQKQESSEISLSDGQVVDIIEKNESGWWFVSTAEEQGWVPATCLEGQ,-0.593 ± 0.12
12,EQYVVVANYQKQESSEISLSVGQVVDIIEKNESGWWFVSTAEEQGWVPAQCLEGQ,-0.161 ± 0.1
13,EQYVVVANYQKQESSEISLSVGQVVDIIEKNESGWWFVSTAEEQGWVPANCLEGQ,-0.159 ± 0.14
14,EQYVVVANYQKQESSEISLSVGQVVDIIEKNESGWWFVSTAEEQGWVPADCLEGQ,-0.093 ± 0.16
15,EQYVVVANYQKQESSEISLSVGQVVDNIEKNESGWWFVSTAEEQGWVPATCLEGQ,-0.899 ± 0.19
16,EQYVVVANYQKQESSEISLSVGQVVDIIEKNESGWWFVSTAEEQGCVPATCLEGQ,-0.233 ± 0.3
17,EQYVVVANYQKQESSEISLSVGQVVDIIEKNESGWWFVSTAEEQGWVPATCLWGQ,-0.477 ± 0.097
18,EQYVVVANYQKQESSEISLSVGQVVDIIEKNESGWWFVSTAMEQGWVPATCLEGQ,-0.048 ± 0.13
19,EQYVVVANYQKQESSEISLSVGQVVDIIEKNESGWWFVSTAPEQGWVPATCLEGQ,-0.431 ± 0.097
20,EQYVVVANYQKQESSEISLSVGQVVDIIEKNESGWWFVSTAEEQGWVPATCDEGQ,-0.942 ± 0.17
21,EQYVVVANYQKQESSEISLSVGQVVDIIEKNESGWWFVSTAEEQGWVPATCEEGQ,-1.1 ± 0.19
22,EQYVVVANYQKQESSEISLSVGQVVDIIEKNESGWWFVSTAEEQGWVPATCMEGQ,-0.168 ± 0.1
23,EQYVVVANYQKQESSEISLSVGQVVDIIEKNESGWWFVSTAEEQGWVPATCVEGQ,-0.049 ± 0.067
24,EQYVVVANYQKQESSEISLSVGQVVDIIEKNESGWWFVSTAENQGWVPATCLEGQ,0.017 ± 0.14
